Here are results for 6 molecules from doi:10.1101/2022.03.30.486445 (bioRxiv, 2022).

The target in experiment [1] is GMPCPP-stabilized HyLite 647/biotin-labeled microtubules (bovine) (UniProt Q6B856). The experiment in a line: single-molecule TIRF microscopy.
The target in a further experiment is T1, His6-EB1-CyPet (human, UniProt Q15691 1-268).
T1 sequence: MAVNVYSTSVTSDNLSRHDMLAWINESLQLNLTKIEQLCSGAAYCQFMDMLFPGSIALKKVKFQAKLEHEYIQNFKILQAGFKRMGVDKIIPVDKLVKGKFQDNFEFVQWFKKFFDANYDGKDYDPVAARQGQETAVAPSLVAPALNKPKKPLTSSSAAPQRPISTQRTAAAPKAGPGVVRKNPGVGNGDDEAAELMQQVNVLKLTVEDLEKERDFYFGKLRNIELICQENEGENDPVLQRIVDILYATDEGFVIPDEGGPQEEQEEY
The experiment in a line: FRET or BRET. Background: BRET reads energy transfer from a luciferase to a nearby fluorophore.

Experiment [2] addresses doubly stabilized microtubules (GMPCPP and paclitaxel) (UniProt Q6B856 1-445). The experiment in a line: co-sedimentation.

Changes are numbered by the printed parent chain.

B1: GFP-Kif18B (full-length human Kif18B N-terminally tagged with EGFP) (natural protein)
chain: MAVEDSTLQVVVRVRPPTPRELDSQRRPVVQVVDERVLVFNPEEPDGGFPGLKWGGTHDGPKKKGKDLTFVFDRVFGEAATQQDVFQHTTHSVLDSFLQGYNCSVFAYGATGAGKTHTMLGREGDPGIMYLTTVELYRRLEARQQEKHFEVLISYQEVYNEQIHDLLEPKGPLAIREDPDKGVVVQGLSFHQPASAEQLLEILTRGNRNRTQHPTDANATSSRSHAIFQIFVKQQDRVPGLTQAVQVAKMSLIDLAGSERASSTHAKGERLREGANINRSLLALINVLNALADAKGRKTHVPYRDSKLTRLLKDSLGGNCRTVMIAAISPSSLTYEDTYNTLKYADRAKEIRLSLKSNVTSLDCHISQYATICQQLQAEVAALRKKLQVYEGGGQPPPQDLPGSPKSGPPPEHLPSSPLPPHPPSQPCTPELPAGPRALQEESLGMEAQVERAMEGNSSDQEQSPEDEDEGPAEEVPTQMPEQNPTHALPESPRLTLQPKPVVGHFSARELDGDRSKQLALKVLCVAQRQYSLLQAANLLTPDMITEFETLQQLVQEEKIEPGAEALRTSGLARGAPLAQELCSESIPVPSPLCPEPPGYTGPVTRTMARRLSGPLHTLGIPPGPNCTPAQGSRWPMEKKRRRPSALEADSPMAPKRGTKRQRQSFLPCLRRGSLPDTQPSQGPSTPKGERASSPCHSPRVCPATVIKSRVPLGPSAMQNCSTPLALPTRDLNATFDLSEEPPSKPSFHECIGWDKIPQELSRLDQPFIPRAPVPLFTMKGPKPTSSLPGTSACKKKRVASSSVSHGRSRIARLPSSTLKRPAGPLVLPGDWH
For B1, in experiment [1], the dwell time at MT plus ends amounted to 5.56 s; the dwell time at MT plus ends, with importin α/β turned out to be 5.39 s; the dwell time on the MT lattice came to 1.77 s; the dwell time on the MT lattice, with importin α/β was 2.3 s. In experiment [1], this molecule registered an on-rate on MTs (landing events per MT length and time) of 0.26 µm·s^-1; an on-rate on MTs (landing events per MT length and time), with importin α/β of 0.35 µm·s^-1.

B2: YPet-Kif18B(708-828)-His6 (domain or fragment)
chain: KSRVPLGPSAMQNCSTPLALPTRDLNATFDLSEEPPSKPSFHECIGWDKIPQELSRLDQPFIPRAPVPLFTMKGPKPTSSLPGTSACKKKRVASSSVSHGRSRIARLPSSTLKRPAGPLVL
With B2, the binding result with His6-EB1-CyPet was “binds”.

B3: YPet-Kif18B(708-828) E2 (domain or fragment)
chain: B2 chain with L81N, P82N
In the case of B3, the binding result with His6-EB1-CyPet is “binds”.

B4: YPet-Kif18B(605-828)-His6 (domain or fragment)
chain: TRTMARRLSGPLHTLGIPPGPNCTPAQGSRWPMEKKRRRPSALEADSPMAPKRGTKRQRQSFLPCLRRGSLPDTQPSQGPSTPKGERASSPCHSPRVCPATVIKSRVPLGPSAMQNCSTPLALPTRDLNATFDLSEEPPSKPSFHECIGWDKIPQELSRLDQPFIPRAPVPLFTMKGPKPTSSLPGTSACKKKRVASSSVSHGRSRIARLPSSTLKRPAGPLVL
For B4, the “fold increase in the Kd for MTs with importin α/β against without” value in experiment [2] is 9 fold. Further, the binding result with His6-EB1-CyPet is recorded as “binds”.

B5: YPet-Kif18B(605-828)-NLS1/2 (domain or fragment)
chain: B4 chain with K35A, K36A, R37A, K52A, R53A, K191A, K192A, K193A, R194A
Take B5: the “fold increase in the Kd for MT binding relative to YPet-Kif18B(605-828)” value in experiment [2] was approximately 2 fold. In addition, the binding result with His6-EB1-CyPet is on record as “binds”.

B6: YPet-Kif18B(605-707)-His6 (domain or fragment)
chain: TRTMARRLSGPLHTLGIPPGPNCTPAQGSRWPMEKKRRRPSALEADSPMAPKRGTKRQRQSFLPCLRRGSLPDTQPSQGPSTPKGERASSPCHSPRVCPATVI
As to B6, the binding result with His6-EB1-CyPet is reported as “binds”.
